Results from article PMC9688528.

Key:
Experiment in all cases: target-induced aptamer displacement, RDV release by UV-vis at 247 nm
[1] = test system: alkaline phosphatase (AKP); settings: 20 U/mL AKP; 3'-SH on aptamer; 5'-COOH on complementary strand; Release assay buffer and temperature not given; Au-DNA stored in PBS (137 mM NaCl, 2.7 mM KCl, 10 mM Na2HPO4, 1.75 mM KH2PO4, 50 mM MgCl2, pH 7.4)
[2] = test system: cytochrome c; settings: 2 uM cytochrome c; 3'-SH on aptamer; 5'-COOH on complementary strand; Release assay buffer and temperature not given; Au-DNA stored in PBS (137 mM NaCl, 2.7 mM KCl, 10 mM Na2HPO4, 1.75 mM KH2PO4, 50 mM MgCl2, pH 7.4)
[3] = test system: fibrinogen (FIB); settings: 2 uM FIB; 3'-SH on aptamer; 5'-COOH on complementary strand; Release assay buffer and temperature not given; Au-DNA stored in PBS (137 mM NaCl, 2.7 mM KCl, 10 mM Na2HPO4, 1.75 mM KH2PO4, 50 mM MgCl2, pH 7.4)
[4] = test system: hemoglobin (HGB); settings: 2 uM HGB; 3'-SH on aptamer; 5'-COOH on complementary strand; Release assay buffer and temperature not given; Au-DNA stored in PBS (137 mM NaCl, 2.7 mM KCl, 10 mM Na2HPO4, 1.75 mM KH2PO4, 50 mM MgCl2, pH 7.4)
[5] = test system: immunoglobulin G (IgG); settings: 2 uM IgG; 3'-SH on aptamer; 5'-COOH on complementary strand; Release assay buffer and temperature not given; Au-DNA stored in PBS (137 mM NaCl, 2.7 mM KCl, 10 mM Na2HPO4, 1.75 mM KH2PO4, 50 mM MgCl2, pH 7.4)

## GCTGGATGTCGCTTACGACAATATTCCTTAGGGGCACCGCTACATTGACACATCCAGC / TTGTACTGGCTCATAGCTGGATGTGTCAATGTAGCGGTGCCCCTAAGGAATATTGTCGTAAGCG
[1]
  binding signal (% of N protein signal): 11.6
[2]
  binding signal (% of N protein signal): 9.13
[3]
  binding signal (% of N protein signal): 4.56
[4]
  binding signal (% of N protein signal): 6.22
[5]
  binding signal (% of N protein signal): 7.05
